Data taken from patent US7148014 (University of Pennsylvania, dated 2006).

Biological target: T1, FcγRIIIA α + γ (WT) on transfected COS-1 cells (human; mouse, UniProt P08637 17-254; P20491 19-86)
T1 construct: whole, on cells; also called FcγRIIIA-γγ; FcγRIIIA α and wild type γ
Experiment: flow cytometry, COS-1 cells cotransfected with α and γ

T1 sequence (P08637 17-254, chain 1 of 2): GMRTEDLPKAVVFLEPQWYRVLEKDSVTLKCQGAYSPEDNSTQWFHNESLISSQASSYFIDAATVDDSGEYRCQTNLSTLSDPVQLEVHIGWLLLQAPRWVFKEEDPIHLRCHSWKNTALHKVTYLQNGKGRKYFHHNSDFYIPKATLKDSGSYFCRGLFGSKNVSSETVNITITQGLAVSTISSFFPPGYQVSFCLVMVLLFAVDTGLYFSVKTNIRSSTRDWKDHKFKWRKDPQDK
T1 sequence (P20491 19-86, chain 2 of 2): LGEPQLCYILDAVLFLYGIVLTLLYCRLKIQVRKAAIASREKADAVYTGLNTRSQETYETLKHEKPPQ

fold increase of mean fluorescence intensity over IgG isotype control or mock-transfected cells: 15 fold
B1: anti-FcγRIII mAb, 3G8 (antibody)
chain 1: QVTLKESGPGILQPSQTLSLTCSFSGFSLRTSGMGVGWIRQPSGKGLEWLAHIWWDDDKRYNPALKSRLTISKDTSSNQVFLKIASVDTADTATYYCAQINPAWFAYWGQGTLVTVS
chain 2: DIVLTQSPASLAVSLGQRATISCKASQSVDFDGDSFMNWYQQKPGQPPKLLIYTTSNLESGIPARFSASGSGTDFTLNIHPVEEEDTATYYCQQSNEDPYTFGGGTKLELK
